What all share (test): FRET or BRET
In assay [1] the target is YFP-GKC (rat).
The target of assay [2] is YFP-GKC[trunc] (rat).
Assay [3] addresses YFP-α1C (α1C[1671]) (UniProt P15381).
In assay [4] the target is YFP-GKC[ΔPYDVV] (rat).

For CFP-NSH3 (domain or fragment), the results for the FRET ratio (FR) in assay [1], in assay [2] and in assay [3] were 2.8, 3.7 and 1.68, respectively. Further, the K d,EFF (relative dissociation constant) in assay [1] was found to be 1870; in assay [2], 3090; in assay [3], 11700. Besides, the figures for the effective FRET efficiency (E EFF) in assay [1] and in assay [2] were 10.2% and 15.5%, respectively.

Regarding CFP-α1C[I-II loop] (domain or fragment), in assay [1], the FRET ratio (FR) worked out at 5.4 and the effective FRET efficiency (E EFF) amounted to 25.6%. Further, in assay [4], the FRET ratio (FR) amounted to 5.5 and the effective FRET efficiency (E EFF) is 26.1%.

The values above are taken from paper PMC2266626.
